Laboratory results: patent US20200223888A1 (ARCH BIOPARTNERS, published 2020)
Ends that are not written are not given here. * marks the point of attachment. Biotin = O=C1N[C@H]2[C@H](CS[C@H]2CCCCC(=O)*)N1

T1: LSALT peptide (LSALTPSPSWLKYKAL)
T1 chain: LSALTPSPSWLKYKAL

T2: human membrane dipeptidase (DPEP-1), wild type, expressed on transfected cells (human, UniProt P16444 17-385)
T2 construct: whole, on cells; also called human DPEP1; hDPEP1
T2 sequence (looked up): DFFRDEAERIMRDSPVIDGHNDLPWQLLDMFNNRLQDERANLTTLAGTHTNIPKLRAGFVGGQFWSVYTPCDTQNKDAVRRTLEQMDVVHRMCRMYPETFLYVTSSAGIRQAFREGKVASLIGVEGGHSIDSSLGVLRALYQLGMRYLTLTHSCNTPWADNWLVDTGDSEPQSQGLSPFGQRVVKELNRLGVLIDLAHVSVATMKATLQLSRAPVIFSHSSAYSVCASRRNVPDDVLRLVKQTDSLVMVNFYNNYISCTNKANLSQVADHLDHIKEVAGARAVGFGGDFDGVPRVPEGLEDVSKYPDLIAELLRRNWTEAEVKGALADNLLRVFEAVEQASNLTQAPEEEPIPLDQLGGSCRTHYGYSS

B1: human membrane dipeptidase (DPEP-1), wild type, expressed on transfected cells (protein)
chain: T2 sequence (looked up)
B2: LSALT peptide (LSALTPSPSWLKYKAL) (peptide)
peptide: LSALTPSPSWLKYKAL
modifications: also: Alexa-488 or biotin label or agarose support in some assays, site not given here
notes: Synthetic peptide from a phage display hit; The label or support differs between assays; also called Metablok; Native
B3: phage hit displaying KHMHWHPPALNT (Ph.D.-12 library) (peptide)
peptide: KHMHWHPPALNT
notes: The phage coat protein part is not described; also called neogenin-mimetic peptide phage hit; phage peptide tentatively identified as corresponding to Neogenin

Key:
[1] = target: T1, LSALT peptide (LSALTPSPSWLKYKAL)
[2] = target: T2, human membrane dipeptidase (DPEP-1), …; test: Alexa-488 peptide on transfected Cos-1 cells, immunofluorescence microscopy (FIG. 5B)
Experimental: Cells were blocked with FBS/NBSA/Tween in PBS for 30 minutes on ice.

[3] = target: T3, rat membrane dipeptidase (DPEP-1), expressed on transfected Cos cells (rat, UniProt P31430 17-384); test: Alexa-488 peptide on transfected Cos-7 cells, flow cytometry (FIG. 9)
T3 construct: whole, on cells; also called renal rat membrane dipeptidase (DPEP-1); rat DPEP-1
T3 sequence (P31430 17-384): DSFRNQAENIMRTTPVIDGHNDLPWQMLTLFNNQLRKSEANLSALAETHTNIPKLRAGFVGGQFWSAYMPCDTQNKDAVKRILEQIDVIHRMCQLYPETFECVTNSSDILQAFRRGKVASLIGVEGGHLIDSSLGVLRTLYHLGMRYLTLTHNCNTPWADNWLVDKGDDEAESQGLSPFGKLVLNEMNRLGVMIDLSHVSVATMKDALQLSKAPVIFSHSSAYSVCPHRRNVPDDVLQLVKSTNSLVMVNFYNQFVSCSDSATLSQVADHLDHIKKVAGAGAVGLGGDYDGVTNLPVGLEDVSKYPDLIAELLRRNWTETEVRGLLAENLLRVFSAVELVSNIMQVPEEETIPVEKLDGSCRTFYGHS
Experimental: Cells were washed and flow cytometry was performed to assess binding. Shown are single parameter histographs for each experimental condition (n=2).

[4] = target: T2, human membrane dipeptidase (DPEP-1), …; test: biotinylated peptide at 5 uM on fixed DPEP1-transfected HEK cells, Alexa 568-streptavidin, fluorescence microscopy
[5] = target: B2; test: phage display biopanning against LSALT-agarose, three rounds, plaque sequencing (FIG. 20A)
Text: Each plaque was amplified separately in liquid bacterial host culture. […] DNA inserts were translated to the expected protein and sorted to assess the number of repeating sequences.

[6] = target: T2, human membrane dipeptidase (DPEP-1), …; test: phage (10^8 pfu) on DPEP1 transfected Cos 1 cells, anti-M13 serum, fluorescence imaging (FIG. 19B)
Experimental: In FIG. 19B, Cosl cells were transiently transfected with plasmids corresponding to human DPEP1 or DPEP2 (Lipofectamine 2000) 24 hrs prior to plating on collagen-coated (PureCol; Type I collagen from bovine tendon) coverslips. One day later cells were incubated with 10⁸ pfu test phage, which were then detected by anti-M13 rabbit serum (in house) with anti-rabbit Alexa 568 secondary. After fixing and counterstaining with DAPI, coverslips were fluorescently imaged.

B1
membrane dipeptidase enzyme activity (Gly-D-Phe substrate, fluorimetric detection of D-Phe) (GFE-1 peptide): LSALT and GFE-1 do not inhibit membrane dipeptidase enzyme activity
membrane dipeptidase enzyme activity (Gly-D-Phe substrate, fluorimetric detection of D-Phe) [1]: LSALT and GFE-1 do not inhibit membrane dipeptidase enzyme activity

B2
binding result [2]: binds
binding result [3]: binds

Biotin-LSALTPSPSWLAYKAL (also called #A12; #Al2) [LSALT alanine walk peptide Pos 12 (LSALTPSPSWLAYKAL)]
binding result [4]: binds

Biotin-ASALTPSPSWLKYKAL (also called #A1; A1) [LSALT alanine walk peptide Pos 1 (ASALTPSPSWLKYKAL)]
binding result [4]: binds

Biotin-LSALAPSPSWLKYKAL (also called #A5; A5) [LSALT alanine walk peptide Pos 5 (LSALAPSPSWLKYKAL)]
binding result [4]: binds

Biotin-LSALTPSPSALKYKAL (also called #A10; A10) [LSALT alanine walk peptide Pos 10 (LSALTPSPSALKYKAL)]
binding result [4]: binds

HIPKSPIQIPII (also called IPK peptide) [IPK phage hit HIPKSPIQIPII (Ph.D.-12 library)]
binding result [5]: binds

B3
binding result [6]: binds
